Consider two substances from patent publication US20160009800A1.

pKd: −log10 of the molar value.

Test [1] addresses human insulin receptor (human) (UniProt P06213). The experiment in a line: FACS, serum-starved IM-9 cells; insulin state of the control not stated.
Test [2] addresses human insulin receptor complexed with human insulin (human) (UniProt P06213). The experiment in a line: FACS, serum-starved IM-9 cells pre-exposed to human insulin. For orientation: A flow cytometer gives signals particle by particle.
Test [3] shares this target. Nature of the test: KinExA, affinity with insulin against affinity without insulin. (In KinExA the mixture passes briefly over coated beads that capture the unbound partner.)
Test [4] concerns the target human insulin receptor (human) (UniProt P06213). The experiment in a line: KinExA antibody depletion by hINSR8-CHOK1 cells, without insulin.
For test [5] the target is unchanged. Nature of the test: FACS, serum-starved IM-9 cells, no insulin.
Test [6] addresses human insulin receptor complexed with human insulin (human) (UniProt P06213). The experiment in a line: KinExA antibody depletion by hINSR8-CHOK1 cells, with 175 nM insulin.

In test [1], Neg Control showed an MFI of 3.83.

As to 83-7 (antibody), the MFI in test [2] amounted to 34.9; in test [5], 18.4. For the same substance, in test [3], the Fold Improvement with Insulin is 3 fold. For the same substance, the figures for the pKd in test [4] and in test [6] were 9.32 and 9.80, respectively.

A word on the pKd: it is −log10 of the Kd, conventionally taken in molar units.
